In patent US20180327494A1 (SUZHOU ALPHAMAB, published 2018):

Experiments:
PDL1-Fc fusion protein [1] = target: T1, PDL1-Fc fusion protein (human); experiment: competitive ELISA, PDL1-Fc coated, 100 ng dAb and 10 ug PD1-Fc-Biotin (competitor); remaining PD1-Fc-Biotin signal
T1 construct: expressed in CHO or HEK293 cells; also called Human PDL1-Fc; recombinant human PDL1-Fc

PDL1-Fc fusion protein [2] = target: T1, PDL1-Fc fusion protein; experiment: ELISA, ratio of OD on PDL1-Fc to OD of blank control
PDL1-Fc fusion protein [3] = target: T1, PDL1-Fc fusion protein; experiment: ELISA, ratio of OD on PDL1-Fc to OD on Fc protein
Fc protein = target: T2, Fc protein; experiment: ELISA, Fc protein coated, 100 ng dAb per well
T2 construct: counter-screen antigen for the Fc moiety of PDL1-Fc

[4] = target: T3, human PDL1 protein on the cell membrane (human, UniProt Q9NZQ7 19-290); experiment: flow cytometry competition: 293-PDL1 cells, single domain antibody plus hPD-1-Fc-biotin 0.3 µg (blocked ligand), SA-PE; right panel
T3 construct: whole, on cells; also used here for Raji-PDL1 cells and for native PDL1 on lung cancer tissue sections; also called Raji-PDL1

PDL1-Fc fusion protein [5] = target: T1, PDL1-Fc fusion protein; experiment: ELISA, PDL1-Fc coated, 100 ng dAb per well, anti-His detection
Mouse PDL1-Fc protein = target: T4, Mouse PDL1-Fc protein (mouse); experiment: ELISA, mouse PDL1-Fc coated, anti-His detection
T4 construct: expressed in HEK293 cells; also called mouse PDL1-Fc fusion protein; mice PDL1-Fc

PDL1-Fc fusion protein [6] = target: T1, PDL1-Fc fusion protein; experiment: competitive ELISA, PDL1-Fc coated, dilution series of antibody with 100 ug/mL PD1-Fc-Biotin (competitor)
PDL1-Fc fusion protein [7] = target: T1, PDL1-Fc fusion protein; experiment: ELISA, dAb coated 0.5 ug/well, dilution series of PDL1-Fc, anti-human IgG-Fc-HRP
PDL1-Fc fusion protein [8] = target: T1, PDL1-Fc fusion protein; experiment: competitive ELISA: PDL1-Fc coated 0.5 µg/well, dilution series of the antibody with PD1-Fc-Biotin 100 µg/mL (blocked ligand), SA-HRP, OD405; the sheet labels it EC50, paragraph 198 calls it IC50; unit from the axis
PDL1-Fc fusion protein [9] = target: T1, PDL1-Fc fusion protein; experiment: ELISA: plate coated with the single domain antibody 0.5 µg/well, dilution series of PDL1-Fc, anti-human IgG-Fc-HRP, OD405, four-parameter fit; unit from the axis 'Log Conc(ng/mL)', the concentration of PDL1-Fc
PDL1-Fc fusion protein [10] = target: T1, PDL1-Fc fusion protein; experiment: SPR, BIAcore X100, PDL1-Fc on CM5 chip, antibody as analyte, 25 C

B1: PDL1-10 dAb (VHH)
VHH: QVQLQESGGGSVQAGGSLRLSCAASGNIVSSYCMGWFRQAPGKERVGVAAIDSDGTTKYADSMKGRFTISKDNAKNTLDLQMNSLKPEDTAMYYCVARLNCPGPVDWVPMFPYRGQGTQVTVSS
notes: camel heavy chain single domain antibody expressed in E. coli, purified on nickel; also called antibody No. 10; not shown: His tag from expression vector PET32b
OD (PDL1-Fc fusion protein [1]): 0.126 OD (405 nm) | OD (PDL1/blank) (PDL1-Fc fusion protein [2]): 15.8 ratio | OD (PDL1/Fc) (PDL1-Fc fusion protein [3]): 8.63 ratio | OD (against Fc) (Fc protein): 0.099 OD (405 nm) | binding result [4]: binds | OD (against PDL1) (PDL1-Fc fusion protein [5]): 0.854 OD (405 nm) | binding result (Mouse PDL1-Fc protein): no binding (tested: 100 ng per well)

B2: PDL1-94 dAb (VHH)
VHH: QVQLQESGGGSVQAGGSLRLSCAASLNIFSSYCMGWFRQAPGKQRVGVATIDSDGTTRYVDSVKGRFTISKDNAKNTLDLQMNSLKPEDTAMYYCAARLNCPGPVDWVPMFPYRGQGTQVTVSS
notes: camel heavy chain single domain antibody expressed in E. coli, purified on nickel; also called antibody No. 94; not shown: His tag from expression vector PET32b
OD (PDL1/blank) (PDL1-Fc fusion protein [2]): 16.2 ratio | OD (PDL1/Fc) (PDL1-Fc fusion protein [3]): 10.3 ratio | OD (against Fc) (Fc protein): 0.085 OD (405 nm) | OD (against PDL1) (PDL1-Fc fusion protein [5]): 0.875 OD (405 nm)

B3: PDL1-27 dAb (VHH)
VHH: QVQLQESGGGSVQAGGSLRLSCAASGNISSRRCMAWFRQAPGKERERVANILTTTGNTYLADSVKGRFTISQNNAKSTVYLQMNSLKPEDTAMYYCAADSFHDPTCTVVASSGAFQYWGQGTQVTVSS
notes: camel heavy chain single domain antibody expressed in E. coli, purified on nickel; also called antibody No. 27; not shown: His tag from expression vector PET32b
OD (PDL1-Fc fusion protein [1]): 0.161 OD (405 nm) | OD (PDL1/blank) (PDL1-Fc fusion protein [2]): 48.5 ratio | IC50 (PDL1-Fc fusion protein [6]): ~0.917 µg/mL | EC50 (PDL1-Fc fusion protein [7]): ~0.005 µg/mL | OD (PDL1/Fc) (PDL1-Fc fusion protein [3]): 32.8 ratio | OD (against Fc) (Fc protein): 0.08 OD (405 nm) | IC50 (PDL1-Fc fusion protein [8]): 0.917 µg/mL | EC50 (PDL1-Fc fusion protein [9]): 0.00568 µg/mL | OD (against PDL1) (PDL1-Fc fusion protein [5]): 2.62 OD (405 nm) | Kd (PDL1-Fc fusion protein [10]): 771 pM

B4: PDL1-81 dAb (VHH)
VHH: QVQLQESGGGSVQAGGSLRLSCAASGNIIRVRCMAWFRQAPGKERERGPNILTTTISTYLADSVKGRFTISQNNAKSTVYLQMNSLKPEDTAMYYCAADSFGYPTCPGPASSGAFQYWGQGTQVTVSS
notes: camel heavy chain single domain antibody expressed in E. coli, purified on nickel; also called antibody No. 81; not shown: His tag from expression vector PET32b
OD (PDL1-Fc fusion protein [1]): 0.429 OD (405 nm) | OD (PDL1/blank) (PDL1-Fc fusion protein [2]): 49.6 ratio | OD (PDL1/Fc) (PDL1-Fc fusion protein [3]): 31.5 ratio | OD (against Fc) (Fc protein): 0.085 OD (405 nm) | OD (against PDL1) (PDL1-Fc fusion protein [5]): 2.68 OD (405 nm) | Kd (PDL1-Fc fusion protein [10]): 548 pM

B5: PDL1-87 dAb (VHH)
VHH: QVQLQESGGGSVQAGGSLKLSCAASGYIFSSCGMGWYRQAPGKERELVSTISSDGTTSYADSVKGRFTISQDNAKNTLYLQMNSLKTEDTAVYYCVADCPPIPEFTSCSGGYCLSGDYWGQGTQVTVSS
notes: camel heavy chain single domain antibody expressed in E. coli, purified on nickel; also called antibody No. 87; not shown: His tag from expression vector PET32b
OD (PDL1-Fc fusion protein [1]): 0.897 OD (405 nm) | OD (PDL1/blank) (PDL1-Fc fusion protein [2]): 41.4 ratio | OD (PDL1/Fc) (PDL1-Fc fusion protein [3]): 18 ratio | OD (against Fc) (Fc protein): 0.124 OD (405 nm) | OD (against PDL1) (PDL1-Fc fusion protein [5]): 2.24 OD (405 nm)

B6: PDL1-38 dAb (VHH)
VHH: QVQLQESGGGSVQAGGSLRLSCAVSGFISSRRCMGWFRQAPGKERVGVANITGTGNTYLADSVKGRFTISQNNAKSTVYLQMNSLKPEDTAMYYCAADSFPTCTVVASSGAFQYWGQGTQVTVSS
notes: camel heavy chain single domain antibody expressed in E. coli, purified on nickel; also called antibody No. 38; not shown: His tag from expression vector PET32b
OD (PDL1/blank) (PDL1-Fc fusion protein [2]): 36.7 ratio | OD (PDL1/Fc) (PDL1-Fc fusion protein [3]): 30.5 ratio | OD (against Fc) (Fc protein): 0.065 OD (405 nm) | OD (against PDL1) (PDL1-Fc fusion protein [5]): 1.98 OD (405 nm)

B7: PDL1-69 dAb (VHH)
VHH: QVQLQESGGGSVQAGGSLRLSCAVQRNISSSYCMAWFRQAPGKQRERVDKILTTPGNTYLADSVKGRFTISQNNAKSTVYLQMNSLKPEDTAMYYCAADSFQKPTCTVVASWPAFQYWGQGTQVTVSS
notes: camel heavy chain single domain antibody expressed in E. coli, purified on nickel; also called antibody No. 69; not shown: His tag from expression vector PET32b
OD (PDL1/blank) (PDL1-Fc fusion protein [2]): 21.7 ratio | OD (PDL1/Fc) (PDL1-Fc fusion protein [3]): 7.1 ratio | OD (against Fc) (Fc protein): 0.165 OD (405 nm) | OD (against PDL1) (PDL1-Fc fusion protein [5]): 1.17 OD (405 nm)
